From the RNAGym collection of RNA variant scans (doi:10.1073/pnas.2313332121)
This sample holds only a part of the variants without activity.

B1: TPR 5TU (parent)
chain: GGAUCUUCUCGAUCUAACAAAAAAGACAAAUCUGCCACAAAGCUUGAGAGCAUCUUCGGAUGCAGAGGCGGCAGCCUUCGGUGGCGCGAUAGCGCCAACGUUCUCAACUAUGACACGCAAAACGCGUGCUCCGUUGAAUGGAGUUUAUCAUG

Variants of: B1
Test: polymerase ribozyme fitness, log enrichment relative to wild type (log ratio); higher = more active; in vitro selection for triplet polymerase activity
Outline: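 Fitness measures genotype enrichment against wild-type enrichment on a logarithmic scale, with inverse-variance-weighted averaging of replicates. The logarithm is base 2, and genotypes were kept only with ≥10 input reads and ≥1 read per output in Illumina sequencing. The sequenced libraries came from one triplicate in vitro selection round, including frozen incubation at −7 °C, of PCR-built, transcribed mutant libraries of each subunit of a heterodimeric triplet polymerase ribozyme.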

| Variant | polymerase ribozyme fitness (log ratio) |
| --- | --- |
| GGAUCUUCUCGAUCGAACAAAAAAGACAAAUCUGCCACAAAGCUUGAUAGCAUUUUCGGAUGCAGAGGCGGCAGCCUUCGGUGGCGCGAUAGCGCCAACGUUCUCAACUAUGACACGCAAAAAGCGUGCUCCGUUUAAUGGAGUUUAUCAUG [U15G G48U C54U C123A G136U] | -2.93 |
| GGAUCUUCUCGAUCUAACAAAAAAGACAAAUCUGCCACAAAGCUUGAGAGCAUCUUCGGAUGCAGAGGCGGCAGCCUUCGGUGCCGCGAUAGCGCCAACGUUCUCAACUAUGACACCCAAAACGCGUGCUCCGUUGAAUGGAGUUUAUCAUG [G84C G117C] | -1.73 |
| GGAUCUUCUCAAUCUAGCAAAAAAGACAAAUCUGCCACAAAGUUUGAGAGCAUCUUCGGAUGCAGAGGCGGCAGCCUUCGGUGGCGCGAUAGCUCCAACGUUCUCAACUAUGACACGCAAAGCGCGUGCUCCGUUGAAUGUAGUUUAUCAUG [G11A A17G C43U G94U A122G G141U] | ≤ -4.2 |
| GGAUCUUCUCGAUCUAACAAAAAAGACAAAUCUGCCACAAAGCUUGAGAGCAUCUUCGGAUGCAGAGGCGGCAGCCUUCGGUGGCGCGAUAGCGCCAACGUUCUCAACUAUGACACGUAAAACGCGUGCUCCGUUGAAUGGAGUAUAUCAUG [C118U U145A] | -0.179 |
| GGAUCUUCUCGAUCUAACAAAAAAGACAAAUCUGCCACAAAGCUUGAGAGCAUCGUCGGAUGCAGAGGCGGUAGCCUUCGGUUGCGCGAUAGCGCUAACGUUCUCAACUAUGACACGCAAAACGCGUGCUCCGUUGAAUGGAGUUUAUCAUG [U55G C72U G83U C96U] | -1.11 |
| GGAUCCUCUCGAGCUAACAAAAAAGACAAAUCUGCCACAAAGGUUGAGAGCAUCUUCGGAUGCAGAGGCGGCAGCUUUCGGUGGCGCGAAAGCGCCAACGUUCUCAACUAUGACACGCAAAACGCGUGCUCCGUUGAAUGGAGUUUAUCAGG [U6C U13G C43G C76U U90A U151G] | ≤ -4.2 |
| GGAUCUUCUCGAUCUAACAAAAAAAACAAAUCUGCCACAAAGCUUGAGAGCAUCAUCGGAUGCAGAGGCGGCAGCCUUCGGUGGCGCGAUAGCGCCAACGUUCUCAACUAUGACACGCAAAACGCGUGCUCCGUUGAAUGGAGUUUAUCAUG [G25A U55A] | -2.09 |
| GGUUCUUCUCGAUCUAACAAAAAAGACAAAUCUGCCACAAAGCUUGAGAGCAUCUUCGGAUGCAGAGGCGGCAGCCUUCGGUAGCGCGAUAGCGCCAACGUUCUCAACUAUGACACGGAAAACGCGUGCUCCGUUGAAUGGCGUUUAUCAUG [A3U G83A C118G A142C] | -3.66 |
| GGAUCUUCUCGAUCUAACAAAAAAGACAAAUCUGUCACAAAGCUUGAGCGCAUCUUCGGAUGCAGAGGCGGCAGCCUUAGGUGGCGAGAUAGCGCCAACGUUCUCAACUAUGACACGCUAAACGCGUGCUCCGUUGAAUGGAGUUUAUCAUG [C35U A49C C79A C87A A119U] | ≤ -4.2 |
| GGUUCUUCUCGAUCUAACAAAAAAGACAAAUCUGCCACAAAGCUUGAGAGCAACUUCGGAUGCAGAGGCGGCAGCCUUCGGCGGCGGGAUAGCGCUAACGUUCUCAACUAUGACACGCAAAACGGGUGCUCCGUUGAAUGGAGUUUAUCAUG [A3U U53A U82C C87G C96U C125G] | ≤ -4.2 |
| GGAUCUUCUCGAUCUAACAAAAAAGACAAAUCUGCCACAAAGCUUGAGAGCGUCUUCGGAUGCAGAGGCGGCAGCCUUCGGUGGCGCGAUAGCGCCAACGUUCUCAUCUAUGACACGCAAAACGCGUGCUCCGUUGAAUGGAGUUUAUCAUG [A52G A107U] | -3.56 |
| GGAUCUUCUCGAUCUAACAAAAAAGACAAAUCUGCCACAAAGCUUGAGAGCAUGUUCGGAUGCAGAGGCGGCAGCCUUCGGUGGCGCGAUAGCGACAACGUUCUCAACUAUGACACGCAAAACGCGUGCUCCGUUGAAUGGAGUUUAUCAUG [C54G C95A] | -1.74 |
| GGAUCUUCUCGAUCUAACAAAAAAGUCAAAUCUGCCACAAAGCAUGAGAGCAUCUUCAGAUGCAGAGGCGGCAGCCUUCGGUGGCGUGAUAGCGCCAACGUUCUCAGCUAUGACACGCAAAAGGCGUGCUCCGUUGAAUGCAGUUUAUCAUG [A26U U44A G58A C87U A107G C123G G141C] | -3.93 |
| GGAUCUUCUCGAUCUAACAUAAAAGACAAAUCUGCCACAAAGCUUGAGCGCAUCUUCCGAUGCAGAGGCGGCAGCCUUCGGUGGCGUGAUAGCGCCAACGUUCUCAACUAUGACACGCAAAACGCGUGCUCCGUUGAAUGGAGUUUAUCAUG [A20U A49C G58C C87U] | ≤ -4.2 |
| GGAUCUUCUCGAUCUAACAAAAAAGACAAAUCUGCCACAAAGCUUGACAGCAUUUUCCGAUGCAGAGGCGGCAGCCUUCGGUGGCGUGAUAGCGCCAACGUUCUCAACUAUGACACGCAAAAUGCGUGCUCCGUUGAAUGGAGUUUAUCAUG [G48C C54U G58C C87U C123U] | -1.05 |
| GGAUCUUCUCGAUCUAACAAAAAUGACAAAUCUGCCACAAAGCUUGAGAGCAUCUUCGGAUGCAGAGGCGGCUGCCUUCGGUGGCGAGUUAGCGCCAACGUUCUCAACUAUGACACGCAAAACGCGUGCUCCGUUGAAUGGAGUUUAUCAUG [A24U A73U C87A A89U] | ≤ -4.2 |
| GGUUCUUCUCGAUCUAACAAAAAAGACAAAUCUGCCACAAAGCUUGAGAGCAUCUUCGGAUGCAGAGGCGGCAGCCUUCGGUGGCGCGAUAGCACCAACGUUCUCAACUAUGACACGCAAAACGCGUGCUCCGUUGAAUGGAGUUUAUCAUG [A3U G94A] | -1.21 |
| GGAUCUUCUCGAUCUAAGAAAAAAGACAAAUCUGCCAAAAAGCUUGAGAGCAUCUUCGGAUGCAGAGGGGGCAGCCUUCGGUGGCGUGAUAGCGCCAACGUUCUCAACUAUGACACGCAAAACGCGUGCUCCGUUGAAUGGAUUAUAUCAUG [C18G C38A C69G C87U G143U U145A] | -3.47 |
| GGAUCUUCUCGAUCUAACAAAAAAGACAAAUCUGCCACAAAGCUUGAGAGCAUCUUCGGAUGCAGAGGCGGCAGCCUUCGGUGGCGCGAUAGCGCCAGCGUUCGCAACUAUGACACGUAAAACGCGUGCUCCGUUGAAUGGAGUUUAUCAUG [A98G U104G C118U] | -0.702 |
